From patent publication US20250027068

B1: PRT-545 (protein)
chain: MANQEIRYSEETPKTITSVWTKGVTPPTDFIKNEDVLHAPYIANQGWYDITKTFNGKDDLLCGAATAGNMLHWWFDQNKEEIERYLKKHPEKQKINFNGEQMFDVKEAIDTKDSQTDSALFEYFKDKAFPYLSTKHLGVFPDHVIDMFINGYRLSLTNHGPTPVKRGTKDPRGGIFDAVFTRGDQSKLLTSRHDFKEKTLKEISDLIKQELTEGKALGLSHTYANVRINHVINLWGADFDSEGNLEAIYVTDSDSNASIGMKKYYVGVNSAGKVAISAKEIEGDNIGAQVLGLFTLSTGQDIWEQTNLEHHHHHH
B2: PRT-587 (protein)
chain: MANQEIRYSEETPKTITSVWTKGVTPPTDFIYNEDVLHAPYIANQGWYDITKTFNGKDDLLCGAATAGNMLHWWFDQNKEQIERYLKKHPEKQKINFNGEQMFDVKEAIDTKDSQTDSKLFEYFKDKAFPYLSTKHLGVFPDHVIDMFINGYRLSLTNHGPTPVKRGTKDPRGGIFDAVFTRGDQSKLLTSRHDFKEKTLNEISDLIKQELTEGKALGLSHTYANVRINHVINLWGADFNSEGNLEAIYVTDSDSNASIGMKKYYVGVNSAGKVAISAKEIEGDNIGAQVLGLFTLSTGKDIWEQTNLEHHHHHH
B3: PRT-571 (protein)
chain: MANQEIRYSEETPSTITSVWTKGVTPPTQFIQNEDVLHAPYIANQGWYDITKTFNGKDDLLCGAATAGNMLHWWFDQNKEQIENYLKKHPEKQKINFNGEQMFDVKEAIDTKDSQTDSALFEYFKDKAFPYLSTKHLGVFPDHVIDMFINGYRLSLTNHGPTPVKRGTKDPRGGIFDAVFTRGDQSKLLTSRHDFKEKTLNEISDLIKQELTEGKALGLSHTYANVRINHVINLWGADFNAEGNLEAIYVTDSDSNASIGMKKYYVGVNAAGKVAISAKEIEGDNIGAQVLGLFTLSTGQDIWNQTNLEHHHHHH
B4: PRT-555 (protein)
chain: MANQEIRYSEETPKTITSVWTKGVTPPTDFIKNEDVLHAPYVANQGWYDITKTFNGKDDLLCGAATAGNMLHWWFDQNKEEIERYLKKHPEKQKINFNGEQMFDVKEAIDTKDSQTDSKLFEYFKDKAFPYLSTKHLGVFPDHVIDMFINGYRLSLTNHGPTPVKRGTKDPRGGIFDAVFTRGDQSKLLTSRHDFKEKTLNEISDLIKQELQEGKALGLSHTYANVRINHVINLWGADFDSEGNLEAIYVTDSDSNASIGMKKYYVGVNSAGKVAISAKEIEDDNIGAQVLGLFTLSTGKDIWEQTNLEHHHHHH
B5: PRT-596 (protein)
chain: MANQEIRYSEETPSTITSVWTKGVTPPTDFIQNEDVLHAPYIANQGWYDITKTFNGKDDLLCGAATAGNMLHWWFDQNKEQIENYLKKHPEKQKINFNGEQMFDVKEAIDTKDSQTDSALFEYFKDKAFPYLSTKHLGVFPDHVIDMFINGYRLSLTNHGPTPVKRGTKDPRGGIFDAVFTRGDQSKLLTSRHDFKEKTLNEISDLIKKELTEGKALGLSHTYANVRINHVINLWGADFNAEGNLEAIYVTDSDSNASIGMKKYYVGVNSAGKVAISAKEIEGDNIGAQVLGLFTLSTGQDIWNQTNLEHHHHHH
B6: PRT-254 (protein)
chain: MVTSVWTKGVTPPTNFTYGEDVLHAPYVANQGWYDITKTFNGKDDLLCGAATAGNMLHWWFDQNKEQIENYLKKHPEKQKINFNGEQMFDVKEAIDTKDSQLDSKLFEYFLEKAFPNLSTKHLGVFPDHVIDMFINGYRLSLLNHGPTPVKRGSKDPRGGIFDAVFTRGDQSKLLTNRHDFKEKTLKEISDLIKQELTEGKALGISHTYANVRINHVINLWGADFDAEGNLEAIYVTDSDSNKSIGMKKYPVGVNSNGKVAISAKEIEEDNIGAQVLGLFTLSTGQDIWNQTN
B7: PRT-262 (protein)
chain: MVTSVWTKGVTPPTNFTYGEDVLHAPYVANQGWYDITKTFNGKDNLLCGAATAGNMLHWWFDQNKEQIENYLKKHPEKQKINFNGEQLFDVKEAIDTKDSQLDSKLFEYFLEKAFPNLSTKHLGVFPDHVIDMFINGYRLSLLNHGPTPVKRGSKDKRGGIFDAVFTRGVQSKLLTNRHDFKEKTLKEISDLIKQELTEGKALGISHTYANVRINHVINLWGADFDAEGNLEAIAVTDSDTNASIGMKKYFVGVNSSGKVAISAKEIEEDNIGAQVLGLFTLSTGQDIWNQTN
B8: PRT-270 (protein)
chain: MVTSVWTKGVTPPTDFIYGEDVLHAPYKAGQGWYDITKLFNGKDDLLCGAATAGNMLHWWFDQNKEQIENYLKKHPEKQKINFNGEQMFDVKEAIDTKDSQLDSKLFEYFLEKAFPNLSTKHLGVFPDHVIDMFINGYRLSLLNHGPTPVKRGSKDPRGGIFDAVFTRGDQSKLLTNRHDLKNKTLKEISDLIKQELTEGKALGISHTYANGRINHVINLWGADFDAEGNLEAIAVTDSDSNASIGMKKYFVGVNSSGKVAISAKEIEEDNIGAQVLGLFTLSTGQDIWNQTN
B9: PRT-544 (protein)
chain: MANQEIRYSKNENPNVTIKWVHGIGEPTQAEKEKIEFWWYETTTTKFFNNRKVDHLGDGNQCWAKTDSNMLHWWFVQNEENINQYIAKKNITGKINFNGEQMFDVKEGIDDNQEKEKSYIANTFRTKKAHNLSTKHKGDYIINGLSWYLYGLNNFKIAHGPTPVKKKPKFYGPALFKDVFNRGDGNTPIIVETDFKEYTKKEFEDTLSAALDSKKAIGINIYGSNVDYQHAITLWGAAFDEEENIIAIYVVDNNFKFENRIFPYGIWYQKEGRPYLFNYEINSFVKNRYVGEVITLDKGEAQWQETNLEHHHHHH
B10: PRT-246 (protein)
chain: MVTSVWTKGVTPPANFTQGEDVFHAPYVANQGWYDITKLFNGKDDLLCGAATAGNMLHWWFDQNKDQIKRYLEEHPEKQKINFNGEQMFDVKEAIDTKNHQLDSKLFDYFKEKAFPYLSTKHLGVFPDHVIDMFINGYRLSLTNHGPTPVKEGSKDPRGGIFDAVFTRGDQSKLLTSRHDFKEKNLKEISDLIKKELTEGKALGLSHTYANVRINHVINLWGADFDSNGNLKAIYVTDSDSNPSIGMKKYFVGVNSSGKVAISAKEIKEDNIGAQVLGLFTLSTGQDSWNQTN
B11: PRT-534 (protein)
chain: MANQEIRYSSDSEWANKKVWVYGITPPEEGAWKYSTYYLPWKKEYGWYDCNKRNPTADGMMCWAATASNLLHWWIAQNKEYIDLYGDKYKGPDKINFNGEQMFDVKEYIDPLDKPQESDIFQCFIDKSFADLSTKHEAGYGDAGINWFIHGIIPSSPAHGPTPVKLDYPYNPAGYFKDVFPRGDGVVLLGNNGDFKELSKERFNETIKDALKNKKAIGLSIGPVNVRSSHVVTIWGAEFDENGDVSYIYMADNNDNWGVGCIRYQIVYEEGGTYTCYKTEIIPSDRPIPINRLVTLELGEEYWKQTNLEHHHHHH
B12: PRT-583 (protein)
chain: MANQEIRYSKAKPKVITSVWTKGVTPPTQFTKNEDVFHAPYLANQGWYDITKTFNGKDDLLCGAATAGNMLHWWFDQNKEQIERYLKKHPEKQKINFNGEQMFDVKEAIDTKDSQTNSKLFNYFKEKAFPYLSTKHLGVFPDHVIDMFINGYRLSLTNHGPTPVKEQNKDPRGGIFDDVFTRGDQSKLLTSRHDFKEKTLKEISDLIKQELKEGKALGLSHTYANVRINHVINLWGADFDAEGNLIAIYVTDSDSNASIGMKKYYVGVNSAGKVAISAKEIEDDNIGAQVLGLFTLSTGKDIWEKTNLEHHHHHH
B13: PRT-559 (protein)
chain: MANQEIRYSEETPKTITSIWTKGVTPPTDFIKTEDVLHAPYVANQGWYDITKTFNGKDDLLCGAATAGNMLHWWFDQNKEEIENYLKKHPEKQKINFNGEQMFDVKEAIDTKDSQTDSALFEYFKDKAFPYLSTKHLGVFPDHVIDMFINGYRLSLTNHGPTPVKDGTKDPRGGIFDAVFTRGDQTKLLTERHDFKEKTLNEISDLIKQELTEGKALGLSHTYANVRINHVINLWGADFNSEGNLEAIYVTDSDSNASIGMKKYYVGVNAAGKVAISAKEIEDDNIGAQVLGLFTLSTGQDIWEQTNLEHHHHHH
B14: PRT-554 (protein)
chain: MANQEIRYSEETPKTITSVWTKGVTPPTDFIKNEDVFHAPYVANQGWYDITKTFNGKDDLLCGAATAGNMLHWWFDQNKEEIENYLKKHPEKQKINFNGEQMFDVKEAIDTKDSQTDSALFNYFKDKAFPYLSTKHLGVFPDHVIDMFINGYRLSLTNHGPTPVKDGTKDPRGGIFDAVFTRGDQTKLLTARHDFKEKTLNEISDLIKQELTEGKALGLSHTYANVRINHVINLWGADFDSEGNLEAIYVTDSDSNASIGMKKYYVGVNAAGKVAISAKEIEDDNIGAQVLGLFTLSTGQDIWEQTNLEHHHHHH

Molecular target: pooled human IgG (human IgG1, 2, 3 and 4)

| Protein | Enzyme Activity Endpoint Assay: Fab′2 [ng/µL] | Enzyme Activity Endpoint Assay: Fc [ng/µL] | Enzyme Activity Endpoint Assay: IgG [ng/µL] | Enzyme Activity Endpoint Assay: scIgG [ng/µL] |
| --- | --- | --- | --- | --- |
| B1 | 690 | 435 | 0 | 0 |
| B2 | 347 | 156 | 0 | 120 |
| B3 | 786 | 383 | 0 | 295 |
| B4 | 670 | 475 | 0 | 0 |
| B5 | 753 | 348 | 0 | 263 |
| B6 | 677 | 359 | 0 | 0 |
| B7 | 50 | 191 | 289 | 802 |
| B8 | 376 | 288 | 100 | 311 |
| B9 | 12 | 170 | 314 | 748 |
| B10 | 666 | 348 | 0 | 221 |
| B11 | 0 | 0 | 1380 | 0 |
| B12 | 748 | 396 | 0 | 261 |
| B13 | 657 | 158 | 0 | 0 |
| B14 | 580 | 350 | 36 | 0 |
